# Measurements reported in the nanobody polyreactivity screen of Harvey et al. (2022).
# Assay: yeast display, Sf9 membrane polyspecificity reagent, FACS + sequencing; frameworks hold sequencing errors
# Procedure, shortened: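 Nanobodies from a synthetic yeast display library (Saccharomyces cerevisiae BJ5465), induced 36–48 hours with galactose, were stained 1 hour at 4 °C with 10% biotinylated, detergent-solubilized Sf9 membrane reagent, enriched on streptavidin microbeads, then FACS-sorted. Anti-HA (expression) and streptavidin (reagent binding) fluorescence set low and high (top ~1%) gates. Polyreactivity labels come from the gate of origin. Genes were colony-PCR amplified, MiSeq 2 × 250 sequenced and filtered by CDR length.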
row,Sequence,polyreactivity (PSR sort gate)
1,QVQLVESGGGLVQAGGSLRLSCAASGSTFRQYAMGWYRQAPGKERELVAAISSSGSTTYYADSVKGRFTISRDNAKNTVDVQMNSRKPEDTAVYYCAATYGFYYFPYDYWGQGTQVTVSS,low polyreactivity
2,QDQLVDSGGGLLQAGGSLRLSCAASGFTFWQYAMGWYRQAPGKERELVAAISGSGSSTYYADSEKGRFTISRDNAKNTVYLQMISLQPEYTAVYYCATAISRYGRFYYWGQGTQVTLSS,high polyreactivity
3,QVQHVESGGGLLQAGGSLRLSCAASGITFWPYAMGWYRQAPGKERELVAAIRASVGRTYYADSVKGRFTISREYAKNTVYLQMNSLIPVDTAVYYCNAYGRYGKFRVEYDYWGQGTQVTVSS,low polyreactivity
4,QVQLVESGGGLVQAGGSLRLSCAASGFTFYIYAMGWYGLAAGKERELVAAINFRGGSTYYADSVKGRFTISRDNAKNTVYLQMNSLKPEDTAVKYCAARSRDKYDYWGQGTQVTVSS,high polyreactivity
5,QVQLVESGGGLVQAGGSLRLSCAASGSTFVFYAMGWYRQAPRKERELVAAITIGGSTYADSVKGRFTISRDNAKNTVYLQMNSLNPEDTAVYYCNADDAPSSFTTLDFTFDYWGQGTQVTVSS,low polyreactivity
6,QVQIEESGGGLVQAGGSLRLICAASGIIIMDYDMGWSRQAPGKERELVAAISRSGGSTYYADSVKGRFKISRDNAKNSVYLQMNSLKPEDTAVYYCNADNVDYPSAPLNPGKGIYYWGQGTQVTVSS,low polyreactivity
7,QVQLVESGGGLVQAGGSLRLSCAASGSIFSYYAMGWYRQAPGKERELVASITYSGGSTYYADSVKGRFTISRDNAKNTVYLQMNSLKPEDTAVYYCAAPLAYEGDYWGQGTQVTVSS,low polyreactivity
8,QVQLVESGGGLVQAGGSLRLSCAASGRTFYYAMGWYRQAPGKERELVAAISKNGGRTYYADSVKGRFTISRDNAKNTVYLQMNSLKPEDTAVYYCAAAFQRPHSYLYYYWGQGTQVTVSS,high polyreactivity
9,QVQLVDSGGGFVQAGGSLRLSCAASGSILAQKAMGWYRQAPGKERELVAAISWSGGRTYYADSVKGRFTISLDNAKNYVYLQMNCLKPEDTAVYYCNKVRRASTVHPDNYWGQGTQVTVSS,high polyreactivity
10,QVQLVESGGGLVQAGGSLRLSCAASGSTSSLNAMGWYRQAPGKEREFVATISFGGGRTYYADSVKGRFTISRDNAKNTVYLQMNSLKPEDTAVYYCAAVGSRWFSQTWRDYWGQGTQVTVSS,high polyreactivity
11,QVQLVESGGVLVQAGGSLRLSCAASGRILFSYGMGWYRQATGKERELVARISWSGGNTHYADSVKGRFTISRDNAKNTVYLQMNSLKPEDTAVYYCNAYYTYWYPRYDYWGQGTQVTVSS,low polyreactivity
12,QVQLVESGGGLVQAGGSLRLSCAASGSTFANYAMGWYRQAPGKERELVAVISWGGGSTYYADSVKGRFTISRDNAKNTVYLQMNSLKPEDTAVYYCAAVYDEYQTTHEYDYWGQGTQVNVSS,low polyreactivity
13,QVQLVESGGGLVQAGGSLRLSCAASGNIFHDNAMGWYRQAPGKERELVAAISDSGGSTYYADSVKGRFTISRDTAKNTVYLQMNSLKPEDTAVYYCDSGRTYYAPYQWWYDYWGQGTQVTVSS,high polyreactivity
14,QVQLQESGGGLVQAGGILRLSCAACGNIFPSAVMGWYRQALGKEREFVATINSGSNTYYADSVNGRFSISRDNAKHTVYLHRNSLKLQDTAVYYCAAYFKLPAWHTSWGQGTQVSVSS,low polyreactivity
15,QVQLEDSGGGLVQAGGSLRLSCAASGRTFHRNAMGWYRQAPGKERELVAAITGSGGSTYYADSVKGRFTISRDNAKNTVYLQMNSLKPEDTAVYYCATYSYPERTGGQRTHYYWGQGTQVTVSS,high polyreactivity
16,QVQLVESGGGLVQAGGSLRLSCAASGRIFRWYGMGWYRQAPGKERELVAAITSGGSTHYADSVKGRFTISRDNAKNTVYLQMNSLKPEDTAVYYCAADPYHLQTRFSGLAEFYYWGQGTQVTVSS,low polyreactivity
17,QVQVVESGGGLVQAGGSLRLSCAASGSTFVLNAMGWYRQAPGKERELVAAITYGGSTYYADSVKGRFTISRDNAKNTVYLQMNSLKPEDTAVYYCAVTYNGDSSWPGDYWGQGTQVTVSS,low polyreactivity
18,QVQLVESGGGLVQAGGSLRLSCAASGRIFRYNAMGWYRQAPGKERELVASITSGGSTKYADSVKGRFTISRDNAKNTVYLQMNSLKPEDTAVYYCAAQRATPWPKNDYWGQGTQVTVSS,high polyreactivity
19,QVQLVESGGGLVQAGGSLRVSCAASGSFFVPYAMGWYRHAPGKERELVAAISRGGDTNYADSEKGRFTISRDNAKNTVYLQRNSLKPEDTAVYYCNRARHHYSRWHGGYYYWGQGTQETVSS,low polyreactivity
20,QVQLVESGGGLVQAGGSLRLSCGASGRTFISNAMGWYRQAPGKERELVATINSGGSTNYADSVKGRFTISRDNAKNTVYLQMNSLKPEDTAVYYCARRVRYKHYDYWGQGTQVTVSS,high polyreactivity

row,Sequence,polyreactivity (PSR sort gate)
1,QVQLGESGGGLVQAGGSLRLSCAASGRIFGAYAMGWYRPAPGKERELVAAITSRGGNTYYADSVKGRFTISRDNAKKTAYLQLNSLKPQDTAVYYCAARHDKRRQYYVGQSAFDYGGQGTQVTVSS,low polyreactivity
2,QVQLVESGGGLVQAGGSLRLSCAASGLIFTWNAMGWYRQATGKERELVAAISTGGSTSYADSVKGRFTISRDNAKNTVYLQMNSLKPEDTAVYYCARDSSIWSHGSWYDYWGQGTQVTVSS,low polyreactivity
3,QQLQESGGGLVQAGGSLRLSCAASGSISGSVLMGWYRQAPGKEREFVASISLGGNTNYADSVKGRFTISRENAKNTVYLQMNCLKPEVAAVYYCAAYISLFETHPYWGQGTQVTVSS,high polyreactivity
4,QVQLVESGGGLVQAGGSLRLSCAASVRTFNFYASGLYRQATRKQRELVAAIRRGGSTNYADSVKGRFTISRDNAKNTVYLQMNSLIREDTAVYYCNKRVWYPYWTVDYWGQGTQVTVSS,low polyreactivity
5,QVQLVESGGGLVQAGGSLRLSCAASGRIFRRYVMVWSRQAPGKERELVARIRIRDSNTYYADSVKGRFTISRDNAKNTVYLQMNSLKPEDTAVYYCAVVANYVYSKYDYWGQGTLVTVSS,high polyreactivity
6,QVQLVESGGGLVQAGGSLRLSCAASGITFPLYAMGWYRQAPGKERELVATISGRGGSTYYADSVKGRFTISRDNAKNTVYLQMNSLKPEDTEVYYCNADFRSPYFLLSWYHSGDYWGQGTQVTVSS,low polyreactivity
7,QVQLVESGGGLVQAGGSLRLSCAASGSTFVSNAMGWYRQAPGKERELVAAISTSGGSTYYADSVKGRFTISRDNAKKTVYLQMNSLKTEDTAVYFCAAVSPRRYRYDYWGQGTQVTVSS,low polyreactivity
8,QVQLQESAGGLVQAGGSLRQSCEASGYIIPYYSMGWYRQSPGKERGLVACIAAGTTTNYADSVNGRFTISRDNEKNTVYLQMNSLNPEDAAVYFCAALNAFNTGHWYWGQGTQVTVSS,low polyreactivity
9,QVQLVESGGGLDQAGGSLRLSCAASGLTFGGNAMGWYRQAPGKERELVAAISWSDDTTDYADSVKGRFTISRDNAKNTVYLQMNSLKPEDTAVYYCAARLPFEHVDYWGQGTQVTVSS,low polyreactivity
10,QVQLVETGGGLVQAGGSLRLSCAASGFNLPIYAMRCYRQPPGKEREFVAAITWTGGSTYYADSVKGRFTISRDNAKNTVYLQMNSLKPEDTAVYYCNAEGPSYYYIIYDYWGQGTQVTVSS,high polyreactivity
11,QVQLVESGGGLVQAGGSLRLSCAASGFIFSLNAMGWYRQAPGKEREFVASITWSGTRTYYADSVKGRFTISRDNAKNTVYLQMNSLKPEDTAVYYCAARTKRSYEYQAFYYWGQGTQVTVSS,high polyreactivity
12,QVQLVESGGGLVQAGGSLRLSCAASGSTFGDYAMGWFRQAPGKERELVAAMNSGDSRNYADSVKGRFTISRDNAKNTVYLQMNSLKPEDTAVYYCAAEPWSISYVYYKYKYESWGQGTQVTVSS,low polyreactivity
13,QVQLVESGGGLVQAGGSLRLSCAASGRIFYAYAMGWYRQAPGKERVFVAAISKRGGSTYYADSVKGRFTISRDNAKNTVYLQMNSRKPEDTAVYYCAADHEAIVRYDYWGQGTQVTVSS,low polyreactivity
14,HVQLVESGGGLFQAGGSLRLCCAASGSISGLYAMGWYRQAPGKERELVAAITLRDGTTSYADSVKGRFTISRDNAKITVYLQMNSLKPEDTDVYYCAAVDRDSKCSVPTLDHWGQGTQVTVSS,low polyreactivity
15,QVQLVESGGGLVQAGGSLRLSCAASGRIFPLYTMGWYRQAPGKERELVAAITSIGGSTYYADSVKGRFTISRDNAKNTVYLQMNSLKPEDTAVYYCNAQYRPLTSWYKMDYWGQGTQVTVSS,high polyreactivity
16,QDQLVESGGGLVQAGGSLRLSCAASGRTFHLYAMGWYRPAPGKERELVAAIRWTGVSTYYADSVKGRFTISRDNAKNTVYLEMNSLKPEDTAVYYCATKQRYRVSRDWSSYCYGYWGQGTQVTVSS,high polyreactivity
17,QVQLVESGGGLVQAGGSLRLSCAASGLTFDYYAMGWYRQAPGKERELVAVISRVGSTYYADSVKGRFTISRDNAKNTVYLQINSLKPEDTAVYYCAADLWHSYQDMYYWGQGTQVTVSS,low polyreactivity
18,QVQRVESGGGLVQAGGSLRLSFAAAGGILYPYAMGWYRQAPGKERELVAAITSSGSTYYADSVKGRFTISRDNAKITVYLQMNSLNPEDHAVYYCAITLPTRNKLRSGREYDYWGQGTQVTVSS,low polyreactivity
19,QVRLVESGGGLVQAGGSLRLSCAASGSIFAPYAMGWYRQAPGKERELVATIRTTGDSTYYADSVKGRFTISRDNAKNTVYLQMNSLKPEDTAVYYCAKSEPLVVGVSPWYQVDYCGQGTQVTVSS,low polyreactivity
20,QVQLVESGGGLVQAGGSLRLSCAASGITFRTYAMGWYRQAPGKERELVAAITRGDSTYYADSVKGRFTISRDNAKNSVYLQMNSLKPEETAVYYCAKESYIVNSRYYTGKMYYWGQGTQVTVSS,low polyreactivity
